Test [1] concerns the target T1, cynomolgus monkey Nectin-4 (cynomolgus monkey, UniProt A0A2K5WES1 32-510).
T1 construct: whole, on cells; Transiently expressed on CHO-K1 cells; also called cynomolgus Nectin-4
T1 sequence: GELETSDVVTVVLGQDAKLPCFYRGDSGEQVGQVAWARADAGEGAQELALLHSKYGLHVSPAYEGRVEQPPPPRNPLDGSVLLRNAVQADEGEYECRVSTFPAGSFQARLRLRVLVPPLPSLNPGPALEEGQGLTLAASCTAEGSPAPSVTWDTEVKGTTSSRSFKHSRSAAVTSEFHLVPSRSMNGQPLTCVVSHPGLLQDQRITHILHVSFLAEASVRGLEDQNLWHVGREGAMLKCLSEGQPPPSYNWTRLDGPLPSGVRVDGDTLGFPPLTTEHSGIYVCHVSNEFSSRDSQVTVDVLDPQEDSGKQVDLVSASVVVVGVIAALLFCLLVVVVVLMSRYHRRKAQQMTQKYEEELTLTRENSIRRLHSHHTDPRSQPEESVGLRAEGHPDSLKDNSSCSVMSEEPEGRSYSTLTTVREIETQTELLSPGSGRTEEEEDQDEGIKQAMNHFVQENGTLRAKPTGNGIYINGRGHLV
Description: cell-based ELISA on CHO-K1 cells expressing cynomolgus monkey Nectin-4. For orientation: In an ELISA, binding on a coated surface is turned into a signal by an enzyme label.

The target in test [2] is T2, recombinant purified human Nectin-4-Fc fusion protein (human, UniProt Q96NY8 32-349).
T2 construct: Bought ('Aero Biosystems' as printed); not shown: Fc part of the bought fusion protein; captured by anti-human IgG Fc sensors
T2 sequence: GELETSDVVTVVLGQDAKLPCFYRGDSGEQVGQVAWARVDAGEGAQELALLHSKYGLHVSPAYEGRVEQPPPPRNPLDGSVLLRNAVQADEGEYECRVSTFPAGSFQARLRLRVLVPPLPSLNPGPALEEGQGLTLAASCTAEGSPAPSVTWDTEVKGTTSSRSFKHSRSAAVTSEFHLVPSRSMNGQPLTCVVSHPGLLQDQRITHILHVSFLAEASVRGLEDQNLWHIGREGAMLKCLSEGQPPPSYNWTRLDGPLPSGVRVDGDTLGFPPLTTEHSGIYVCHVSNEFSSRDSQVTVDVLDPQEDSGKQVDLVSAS
Description: BLI (Octet), Nectin-4-Fc on anti-human Fc sensors, run 1. Background: In BLI a coated tip is dipped into the sample, and binding shifts an interference pattern.

The target of test [3] is T2, recombinant purified human Nectin-4-Fc …. Description: BLI (Octet), Nectin-4-Fc on anti-human Fc sensors, run 2.
Test [4] addresses T3, mouse Nectin-4 (mouse, UniProt Q8R007 31-508).
T3 construct: whole, on cells; Transiently expressed on CHO-K1 cells; also called murine Nectin-4
T3 sequence (looked up): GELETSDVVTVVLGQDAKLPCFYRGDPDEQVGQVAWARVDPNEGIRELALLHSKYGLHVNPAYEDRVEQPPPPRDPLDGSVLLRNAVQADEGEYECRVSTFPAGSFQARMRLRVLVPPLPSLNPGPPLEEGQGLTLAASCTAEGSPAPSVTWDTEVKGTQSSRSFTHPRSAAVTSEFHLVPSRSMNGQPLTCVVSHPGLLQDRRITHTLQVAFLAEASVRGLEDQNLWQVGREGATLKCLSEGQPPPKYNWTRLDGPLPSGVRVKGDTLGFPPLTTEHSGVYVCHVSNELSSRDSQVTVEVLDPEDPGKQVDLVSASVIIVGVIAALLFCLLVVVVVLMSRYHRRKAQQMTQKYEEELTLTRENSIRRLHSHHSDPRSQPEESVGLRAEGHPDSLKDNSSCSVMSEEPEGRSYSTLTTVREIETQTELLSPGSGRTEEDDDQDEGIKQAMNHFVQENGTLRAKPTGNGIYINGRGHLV
Description: cell-based ELISA on transfected CHO-K1 cells.

The target in test [5] is T4, human Nectin-4 (on cells) (human, UniProt Q96NY8 32-510).
T4 construct: also called PVRL4; NECT4_HUMAN
T4 sequence: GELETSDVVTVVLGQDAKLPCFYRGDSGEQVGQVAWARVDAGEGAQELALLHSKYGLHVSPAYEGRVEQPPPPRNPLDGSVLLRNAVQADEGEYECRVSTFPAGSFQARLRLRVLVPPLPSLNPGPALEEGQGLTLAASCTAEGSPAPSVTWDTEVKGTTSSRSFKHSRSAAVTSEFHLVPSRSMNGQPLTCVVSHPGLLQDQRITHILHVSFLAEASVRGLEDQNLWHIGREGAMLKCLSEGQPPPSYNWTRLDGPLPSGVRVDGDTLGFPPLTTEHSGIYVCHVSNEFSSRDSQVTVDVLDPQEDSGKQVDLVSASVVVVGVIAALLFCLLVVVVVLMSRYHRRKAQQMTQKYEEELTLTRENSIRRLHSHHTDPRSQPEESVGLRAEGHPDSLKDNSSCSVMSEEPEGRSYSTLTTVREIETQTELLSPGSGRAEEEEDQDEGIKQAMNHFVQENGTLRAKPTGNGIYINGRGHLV
Description: flow cytometry on A431 cells (endogenous Nectin-4).

For test [6], the target named is T4, human Nectin-4 (on cells). Description: flow cytometry on HT-29 cells (endogenous Nectin-4). A general note: Flow cytometry measures light scatter and fluorescence of single cells or particles in a stream.
Test [7] deals with T4, human Nectin-4 (on cells). Description: flow cytometry on BeWo cells (endogenous Nectin-4).
The target in test [8] is T3, mouse Nectin-4. Description: cell-based ELISA on CHO-K1 cells expressing mouse Nectin-4.
The target of test [9] is T2, recombinant purified human Nectin-4-Fc …. Description: BLI (Octet), Nectin-4-Fc on anti-human Fc sensors, run 2. This is another data set of the same source.
The target is the same in test [10]. Description: BLI (Octet), Nectin-4-Fc on anti-human Fc sensors, run 1. The source holds these as a separate data set.

B1: LV1183 (VHH)
VHH: EVQLVESGGGLVQAGGSLRLSCAASGSIFDINLMGWYRQAPGKLRELVASITRGGSTWYVDSVKGRFIISRDSAKNTVYLQMNSLKPGDTAVYYCAAESIGSYTFDRWGQGTQVTVSS
notes: Llama-derived anti-Nectin-4 VHH
With B1, the binding result in test [1] is given as “binds”; in test [4], “no binding (tested: 0.032 to 500 nM)”. Moreover, the Kd (as a rule, the concentration at which binding is half-saturated) in [2] was 5.7 nM; in test [3], 7.98 nM.

B2: LV1178 (VHH)
VHH: EVQLVESGGALVQAGGSLRLSCSVSGLTASRLTMGWFRQAPGKEREFVARVYASGGLTDYADSVKGRFTISRDNAKNTVYLQMNSLEPEDTAVYYCVAGLWADMRTMTSTRGYWGQGTQVTVSS
notes: Llama-derived anti-Nectin-4 VHH from phage display
Turning to B2, the binding result in test [1] is on record as “binds”; in test [4] it was “no binding (tested: 0.032 to 500 nM)”. Further, the Kd in [3] was 8.02 nM.

B3: LV1181 (VHH)
VHH: EVQLVESGGGLVQAGGSLRLSCAASGSISSINLMGWHRQAPGKQRELVATITRGGSTNYADSVKGRFTISRDNGKNTVYLQMNSLKPEDTAAYYCVDVEPSGMGWRDYWGQGTQVTVSS
notes: as for B1
Turning to B3, the EC50 (as a rule, the concentration needed to bring the measured effect to its halfway point) in [5] stood at 0.33 nM; in test [6] it was 1.5 nM; in test [7], 0.4 nM. Also, the binding result in [1] and in [8] was “binds” each time. Further, the Kd came to 0.8 nM in [2] and 0.76 nM in test [3].

B4: LV1185xVδ2 (bispecific antibody)
chain: EVQLVESGGGLVQAGGSLRLSCAASRSTFSLNIMGWYRQAPGKQREYVATITTGGSTNYADSVRGRFTISRDNAEDTVYLQMNSLKPEDTAVYYCTAELVRRGPTTYWGRGTQVTVSSGGGGSEVQLVESGGGLVQAGGSLRLSCAASGRPFSNYAMGWFRQAPGKEREFVAAISWSGGSTSYADSVKGRFTISRDNAKNTVYLQMNSPKPEDTAIYYCAAQFSGADYGFGRLGIRGYEYDYWGQGTQVTVSS
notes: Orientation N-term-anti-Nectin-4 VHH-linker-anti-Vδ2 VHH (5C8); no Fc; also called Nectin-4xVδ2 bispecific VHH
With B4, in [9], the Kd stood at 2.4 nM; the koff (commonly the rate constant with which the complex falls apart) was found to be 0.00144 s⁻¹; the on-rate (kon) (as a rule, a measure of how fast the partners come together) is 593000 M⁻¹ s⁻¹. Also, in test [10], the Kd was 2 nM, the koff turned out to be 0.00127 s⁻¹ and the kon was 642000 M⁻¹ s⁻¹.

B5: LV1186xVδ2 (bispecific antibody)
chain: EVQLVESGGGLVQAGGSLRLSCAASRSTFSLNIMGWYRQAPGKQREYVATITSGGSTNYADSVRGRFTISRDNAENTVYLQMDSLKPEDTAVYYCTAELVRRGPTTYWGRGTQVTVSSGGGGSEVQLVESGGGLVQAGGSLRLSCAASGRPFSNYAMGWFRQAPGKEREFVAAISWSGGSTSYADSVKGRFTISRDNAKNTVYLQMNSPKPEDTAIYYCAAQFSGADYGFGRLGIRGYEYDYWGQGTQVTVSS
notes: as for B4
With B5, in test [9], the Kd is 2.6 nM, the koff is 0.0017 s⁻¹ and the on-rate constant (kon) was determined as 660000 M⁻¹ s⁻¹. Also, in test [10], the Kd was found to be 2.3 nM, the koff worked out at 0.00165 s⁻¹ and the kon was determined as 731000 M⁻¹ s⁻¹.

B6: LV1184 (VHH)
VHH: EVQLVESGGGLVQAGGSLRLSCAASGSISSINLMGWFRQAPAKQRELVTSISPGGSVRYADSVKGRFTISRDVAKNTVDLQMNSLKPEDTAVYYCAAESERTYYFDSWGQGTQVTVSS
notes: as for B1
As to B6, the results for the EC50 in test [5], in test [6] and in test [7] were 0.24 nM, 1.2 nM and 0.3 nM, respectively. Moreover, the binding result in [1] and in test [8] was “binds” in each case. The Kd in [2] and in test [3] was 0.51 nM in each case.

B7: LV1185 (VHH)
VHH: EVQLVESGGGLVQAGGSLRLSCAASRSTFSLNIMGWYRQAPGKQREYVATITTGGSTNYADSVRGRFTISRDNAEDTVYLQMNSLKPEDTAVYYCTAELVRRGPTTYWGRGTQVTVSS
notes: as for B1
Consider B7, for which the binding result in test [1] and in test [8] was “binds” throughout. Also, the dissociation constant (Kd) came to 3.61 nM in test [2] and 2.34 nM in test [3].

B8: LV1186 (VHH)
VHH: EVQLVESGGGLVQAGGSLRLSCAASRSTFSLNIMGWYRQAPGKQREYVATITSGGSTNYADSVRGRFTISRDNAENTVYLQMDSLKPEDTAVYYCTAELVRRGPTTYWGRGTQVTVSS
notes: as for B1
In the case of B8, the binding result in test [1] and in [8] was “binds” in each case. The figures for the Kd in [2] and in test [3] were 3.93 nM and 3.94 nM, respectively.

B9: LV1181xVδ2 (bispecific antibody)
chain: EVQLVESGGGLVQAGGSLRLSCAASGSISSINLMGWHRQAPGKQRELVATITRGGSTNYADSVKGRFTISRDNGKNTVYLQMNSLKPEDTAAYYCVDVEPSGMGWRDYWGQGTQVTVSSGGGGSEVQLVESGGGLVQAGGSLRLSCAASGRPFSNYAMGWFRQAPGKEREFVAAISWSGGSTSYADSVKGRFTISRDNAKNTVYLQMNSPKPEDTAIYYCAAQFSGADYGFGRLGIRGYEYDYWGQGTQVTVSS
notes: as for B4
With B9, in test [9], the Kd stood at 0.37 nM, the koff turned out to be 0.0003 s⁻¹ and the kon amounted to 818000 M⁻¹ s⁻¹. In addition, in [10], the Kd was 0.26 nM, the koff stood at 0.000266 s⁻¹ and the kon came out at 1.04e+06 M⁻¹ s⁻¹.

B10: LV1187 (VHH)
VHH: EVQLVESGGGLVQAGGFLRLSCAASRSVFRINVMGWYRQAPGKQRELVAGITSGGSRRLADSVKGRFTISRDNAKNTVYLQMNSLKPEDTAVYYCFAEAVVGDEPYWGQGTQVTVSS
notes: as for B1
Regarding B10, the binding result in test [1] and in test [8] was “binds” in each case. Also, the dissociation constant Kd in [2] came out at 5.2 nM; in test [3] it was 6.09 nM.

B11: LV1184xVδ2 (bispecific antibody)
chain: EVQLVESGGGLVQAGGSLRLSCAASGSISSINLMGWFRQAPAKQRELVTSISPGGSVRYADSVKGRFTISRDVAKNTVDLQMNSLKPEDTAVYYCAAESERTYYFDSWGQGTQVTVSSGGGGSEVQLVESGGGLVQAGGSLRLSCAASGRPFSNYAMGWFRQAPGKEREFVAAISWSGGSTSYADSVKGRFTISRDNAKNTVYLQMNSPKPEDTAIYYCAAQFSGADYGFGRLGIRGYEYDYWGQGTQVTVSS
notes: as for B4
On to B11, for which, in test [9], the Kd came to 0.18 nM, the koff was determined as 0.000149 s⁻¹ and the kon stood at 844000 M⁻¹ s⁻¹. Moreover, in [10], the Kd was determined as 0.07 nM, the off-rate (koff) was determined as 6.33e-05 s⁻¹ and the kon stood at 973000 M⁻¹ s⁻¹.

The values above are taken from patent EP4438624A1 (LAVA Therapeutics N.V., dated 2024).
